The target of data set [1] is T1, angiopoietin-2 (Ang2) (human, UniProt O15123 19-496). Nature of the data set: bead-based fluorescence assay.
Data set [2] addresses T1, angiopoietin-2 (Ang2). Nature of the data set: bead-based fluorescence assay. This is another data set of the same source.
In data set [3] the target is T1, angiopoietin-2 (Ang2). Nature of the data set: bead-based fluorescence assay. This is another data set of the same source.
For data set [4], the target named is T1, angiopoietin-2 (Ang2). Nature of the data set: ELONA sandwich.

In general, Kd refers to a measure of binding affinity in units of concentration. Low values mean a tighter complex, high ones a looser complex.

T1 sequence (O15123 19-496): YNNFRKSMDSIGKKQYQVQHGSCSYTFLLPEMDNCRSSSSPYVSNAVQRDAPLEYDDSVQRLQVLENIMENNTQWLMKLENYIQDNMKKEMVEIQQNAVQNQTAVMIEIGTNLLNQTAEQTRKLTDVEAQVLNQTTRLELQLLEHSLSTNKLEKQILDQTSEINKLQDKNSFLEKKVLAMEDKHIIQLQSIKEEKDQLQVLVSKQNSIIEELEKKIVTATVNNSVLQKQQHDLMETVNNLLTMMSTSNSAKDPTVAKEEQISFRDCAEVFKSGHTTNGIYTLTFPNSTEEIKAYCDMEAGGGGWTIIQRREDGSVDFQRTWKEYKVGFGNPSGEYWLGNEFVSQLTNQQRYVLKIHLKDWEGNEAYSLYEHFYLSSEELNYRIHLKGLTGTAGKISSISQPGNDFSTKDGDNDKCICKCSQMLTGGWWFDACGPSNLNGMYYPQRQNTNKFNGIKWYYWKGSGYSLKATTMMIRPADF

On to GGGTGCCATTGGGGACTGCTCGGGATTGCGGACTTGGCAT (ssDNA) [ABA109], for which, in data set [1], the binding result was “binds”.

Turning to ACTTGTAGGGTTCGGCTGGTCAGGGTGTCCAAGTCTGTGG (ssDNA) [ABA1], the binding signal in data set [2] was ~210 fold higher Kd than ABA1-ABA65 (97 pM).

With GGTGCCATTGGGGACTGCTCGGGATTGCGGACTTGGCATC (ssDNA) [ABA92], the binding result in data set [1] is on record as “binds”.

Molecule TTTTTTTTTTTTTTTTTTTTTTTTT (ssDNA) [25T linker] showed a Kd in data set [3] of 210 ± 49.4 nM.

Turning to TTTGGGGTGGTTGGGGGTTGTTGTTTTGGGGGTGGAGGGT (ssDNA) [ABA65], in data set [4], the binding result was “binds”.

The record behind these values is paper PMC4287840.
